B1: H183/L072 VH A57V (antibody, name in Kabat numbering, V domains shown)
VH: QVQLVESGGGLVQPGRSLRLSCAASGFTFSNAWMHWVRQAPGKGLEWVAQIKDKGNAYAVYYAPSVKGRFTISRDDSKNSIYLQMNSLKTEDTAVYYCHYVHYASASTVLPAFGVDAWGQGTTVTVSS
VL: DIVMTQSPLSLPVTPGEPASISCQASQELVHMNRNTYLHWYQQKPGQAPRLLIYKVSNRFPGVPDRFSGSGSGTDFTLKISRVEAEDVGVYYCAQGTSVPFTFGQGTKLEIK
B2: H183/L072 VH A60D (antibody, name in Kabat numbering, V domains shown)
VH: QVQLVESGGGLVQPGRSLRLSCAASGFTFSNAWMHWVRQAPGKGLEWVAQIKDKGNAYAAYYDPSVKGRFTISRDDSKNSIYLQMNSLKTEDTAVYYCHYVHYASASTVLPAFGVDAWGQGTTVTVSS
VL: DIVMTQSPLSLPVTPGEPASISCQASQELVHMNRNTYLHWYQQKPGQAPRLLIYKVSNRFPGVPDRFSGSGSGTDFTLKISRVEAEDVGVYYCAQGTSVPFTFGQGTKLEIK
B3: H183/L072 VH A60H (antibody, name in Kabat numbering, V domains shown)
VH: QVQLVESGGGLVQPGRSLRLSCAASGFTFSNAWMHWVRQAPGKGLEWVAQIKDKGNAYAAYYHPSVKGRFTISRDDSKNSIYLQMNSLKTEDTAVYYCHYVHYASASTVLPAFGVDAWGQGTTVTVSS
VL: DIVMTQSPLSLPVTPGEPASISCQASQELVHMNRNTYLHWYQQKPGQAPRLLIYKVSNRFPGVPDRFSGSGSGTDFTLKISRVEAEDVGVYYCAQGTSVPFTFGQGTKLEIK
B4: H183/L072 VH A60G (antibody, name in Kabat numbering, V domains shown)
VH: QVQLVESGGGLVQPGRSLRLSCAASGFTFSNAWMHWVRQAPGKGLEWVAQIKDKGNAYAAYYGPSVKGRFTISRDDSKNSIYLQMNSLKTEDTAVYYCHYVHYASASTVLPAFGVDAWGQGTTVTVSS
VL: DIVMTQSPLSLPVTPGEPASISCQASQELVHMNRNTYLHWYQQKPGQAPRLLIYKVSNRFPGVPDRFSGSGSGTDFTLKISRVEAEDVGVYYCAQGTSVPFTFGQGTKLEIK
B5: H183/L072 VH A60N (antibody, name in Kabat numbering, V domains shown)
VH: QVQLVESGGGLVQPGRSLRLSCAASGFTFSNAWMHWVRQAPGKGLEWVAQIKDKGNAYAAYYNPSVKGRFTISRDDSKNSIYLQMNSLKTEDTAVYYCHYVHYASASTVLPAFGVDAWGQGTTVTVSS
VL: DIVMTQSPLSLPVTPGEPASISCQASQELVHMNRNTYLHWYQQKPGQAPRLLIYKVSNRFPGVPDRFSGSGSGTDFTLKISRVEAEDVGVYYCAQGTSVPFTFGQGTKLEIK
B6: H183/L072 VH A60K (antibody, name in Kabat numbering, V domains shown)
VH: QVQLVESGGGLVQPGRSLRLSCAASGFTFSNAWMHWVRQAPGKGLEWVAQIKDKGNAYAAYYKPSVKGRFTISRDDSKNSIYLQMNSLKTEDTAVYYCHYVHYASASTVLPAFGVDAWGQGTTVTVSS
VL: DIVMTQSPLSLPVTPGEPASISCQASQELVHMNRNTYLHWYQQKPGQAPRLLIYKVSNRFPGVPDRFSGSGSGTDFTLKISRVEAEDVGVYYCAQGTSVPFTFGQGTKLEIK
B7: H183/L072 VH A60F (antibody, name in Kabat numbering, V domains shown)
VH: QVQLVESGGGLVQPGRSLRLSCAASGFTFSNAWMHWVRQAPGKGLEWVAQIKDKGNAYAAYYFPSVKGRFTISRDDSKNSIYLQMNSLKTEDTAVYYCHYVHYASASTVLPAFGVDAWGQGTTVTVSS
VL: DIVMTQSPLSLPVTPGEPASISCQASQELVHMNRNTYLHWYQQKPGQAPRLLIYKVSNRFPGVPDRFSGSGSGTDFTLKISRVEAEDVGVYYCAQGTSVPFTFGQGTKLEIK
B8: H183/L072 VH A60P (antibody, name in Kabat numbering, V domains shown)
VH: QVQLVESGGGLVQPGRSLRLSCAASGFTFSNAWMHWVRQAPGKGLEWVAQIKDKGNAYAAYYPPSVKGRFTISRDDSKNSIYLQMNSLKTEDTAVYYCHYVHYASASTVLPAFGVDAWGQGTTVTVSS
VL: DIVMTQSPLSLPVTPGEPASISCQASQELVHMNRNTYLHWYQQKPGQAPRLLIYKVSNRFPGVPDRFSGSGSGTDFTLKISRVEAEDVGVYYCAQGTSVPFTFGQGTKLEIK
B9: H183/L072 VH A60I (antibody, name in Kabat numbering, V domains shown)
VH: QVQLVESGGGLVQPGRSLRLSCAASGFTFSNAWMHWVRQAPGKGLEWVAQIKDKGNAYAAYYIPSVKGRFTISRDDSKNSIYLQMNSLKTEDTAVYYCHYVHYASASTVLPAFGVDAWGQGTTVTVSS
VL: DIVMTQSPLSLPVTPGEPASISCQASQELVHMNRNTYLHWYQQKPGQAPRLLIYKVSNRFPGVPDRFSGSGSGTDFTLKISRVEAEDVGVYYCAQGTSVPFTFGQGTKLEIK
B10: H183/L072 VH A60Q (antibody, name in Kabat numbering, V domains shown)
VH: QVQLVESGGGLVQPGRSLRLSCAASGFTFSNAWMHWVRQAPGKGLEWVAQIKDKGNAYAAYYQPSVKGRFTISRDDSKNSIYLQMNSLKTEDTAVYYCHYVHYASASTVLPAFGVDAWGQGTTVTVSS
VL: DIVMTQSPLSLPVTPGEPASISCQASQELVHMNRNTYLHWYQQKPGQAPRLLIYKVSNRFPGVPDRFSGSGSGTDFTLKISRVEAEDVGVYYCAQGTSVPFTFGQGTKLEIK
B11: H183/L072 VH A60Y (antibody, name in Kabat numbering, V domains shown)
VH: QVQLVESGGGLVQPGRSLRLSCAASGFTFSNAWMHWVRQAPGKGLEWVAQIKDKGNAYAAYYYPSVKGRFTISRDDSKNSIYLQMNSLKTEDTAVYYCHYVHYASASTVLPAFGVDAWGQGTTVTVSS
VL: DIVMTQSPLSLPVTPGEPASISCQASQELVHMNRNTYLHWYQQKPGQAPRLLIYKVSNRFPGVPDRFSGSGSGTDFTLKISRVEAEDVGVYYCAQGTSVPFTFGQGTKLEIK
B12: H183/L072 VH A60S (antibody, name in Kabat numbering, V domains shown)
VH: QVQLVESGGGLVQPGRSLRLSCAASGFTFSNAWMHWVRQAPGKGLEWVAQIKDKGNAYAAYYSPSVKGRFTISRDDSKNSIYLQMNSLKTEDTAVYYCHYVHYASASTVLPAFGVDAWGQGTTVTVSS
VL: DIVMTQSPLSLPVTPGEPASISCQASQELVHMNRNTYLHWYQQKPGQAPRLLIYKVSNRFPGVPDRFSGSGSGTDFTLKISRVEAEDVGVYYCAQGTSVPFTFGQGTKLEIK
B13: H183/L072 VH A60E (antibody, name in Kabat numbering, V domains shown)
VH: QVQLVESGGGLVQPGRSLRLSCAASGFTFSNAWMHWVRQAPGKGLEWVAQIKDKGNAYAAYYEPSVKGRFTISRDDSKNSIYLQMNSLKTEDTAVYYCHYVHYASASTVLPAFGVDAWGQGTTVTVSS
VL: DIVMTQSPLSLPVTPGEPASISCQASQELVHMNRNTYLHWYQQKPGQAPRLLIYKVSNRFPGVPDRFSGSGSGTDFTLKISRVEAEDVGVYYCAQGTSVPFTFGQGTKLEIK
B14: H183/L072 VH A60M (antibody, name in Kabat numbering, V domains shown)
VH: QVQLVESGGGLVQPGRSLRLSCAASGFTFSNAWMHWVRQAPGKGLEWVAQIKDKGNAYAAYYMPSVKGRFTISRDDSKNSIYLQMNSLKTEDTAVYYCHYVHYASASTVLPAFGVDAWGQGTTVTVSS
VL: DIVMTQSPLSLPVTPGEPASISCQASQELVHMNRNTYLHWYQQKPGQAPRLLIYKVSNRFPGVPDRFSGSGSGTDFTLKISRVEAEDVGVYYCAQGTSVPFTFGQGTKLEIK
B15: H183/L072 VH A57Y (antibody, name in Kabat numbering, V domains shown)
VH: QVQLVESGGGLVQPGRSLRLSCAASGFTFSNAWMHWVRQAPGKGLEWVAQIKDKGNAYAYYYAPSVKGRFTISRDDSKNSIYLQMNSLKTEDTAVYYCHYVHYASASTVLPAFGVDAWGQGTTVTVSS
VL: DIVMTQSPLSLPVTPGEPASISCQASQELVHMNRNTYLHWYQQKPGQAPRLLIYKVSNRFPGVPDRFSGSGSGTDFTLKISRVEAEDVGVYYCAQGTSVPFTFGQGTKLEIK
B16: H183/L072 VH A60L (antibody, name in Kabat numbering, V domains shown)
VH: QVQLVESGGGLVQPGRSLRLSCAASGFTFSNAWMHWVRQAPGKGLEWVAQIKDKGNAYAAYYLPSVKGRFTISRDDSKNSIYLQMNSLKTEDTAVYYCHYVHYASASTVLPAFGVDAWGQGTTVTVSS
VL: DIVMTQSPLSLPVTPGEPASISCQASQELVHMNRNTYLHWYQQKPGQAPRLLIYKVSNRFPGVPDRFSGSGSGTDFTLKISRVEAEDVGVYYCAQGTSVPFTFGQGTKLEIK
B17: H183/L072 VH A60V (antibody, name in Kabat numbering, V domains shown)
VH: QVQLVESGGGLVQPGRSLRLSCAASGFTFSNAWMHWVRQAPGKGLEWVAQIKDKGNAYAAYYVPSVKGRFTISRDDSKNSIYLQMNSLKTEDTAVYYCHYVHYASASTVLPAFGVDAWGQGTTVTVSS
VL: DIVMTQSPLSLPVTPGEPASISCQASQELVHMNRNTYLHWYQQKPGQAPRLLIYKVSNRFPGVPDRFSGSGSGTDFTLKISRVEAEDVGVYYCAQGTSVPFTFGQGTKLEIK
B18: H183/L072 VH A98I (antibody, name in Kabat numbering, V domains shown)
VH: QVQLVESGGGLVQPGRSLRLSCAASGFTFSNAWMHWVRQAPGKGLEWVAQIKDKGNAYAAYYAPSVKGRFTISRDDSKNSIYLQMNSLKTEDTAVYYCHYVHYISASTVLPAFGVDAWGQGTTVTVSS
VL: DIVMTQSPLSLPVTPGEPASISCQASQELVHMNRNTYLHWYQQKPGQAPRLLIYKVSNRFPGVPDRFSGSGSGTDFTLKISRVEAEDVGVYYCAQGTSVPFTFGQGTKLEIK
B19: H183/L072 VH A60R (antibody, name in Kabat numbering, V domains shown)
VH: QVQLVESGGGLVQPGRSLRLSCAASGFTFSNAWMHWVRQAPGKGLEWVAQIKDKGNAYAAYYRPSVKGRFTISRDDSKNSIYLQMNSLKTEDTAVYYCHYVHYASASTVLPAFGVDAWGQGTTVTVSS
VL: DIVMTQSPLSLPVTPGEPASISCQASQELVHMNRNTYLHWYQQKPGQAPRLLIYKVSNRFPGVPDRFSGSGSGTDFTLKISRVEAEDVGVYYCAQGTSVPFTFGQGTKLEIK
B20: H183/L072 VH A60W (antibody, name in Kabat numbering, V domains shown)
VH: QVQLVESGGGLVQPGRSLRLSCAASGFTFSNAWMHWVRQAPGKGLEWVAQIKDKGNAYAAYYWPSVKGRFTISRDDSKNSIYLQMNSLKTEDTAVYYCHYVHYASASTVLPAFGVDAWGQGTTVTVSS
VL: DIVMTQSPLSLPVTPGEPASISCQASQELVHMNRNTYLHWYQQKPGQAPRLLIYKVSNRFPGVPDRFSGSGSGTDFTLKISRVEAEDVGVYYCAQGTSVPFTFGQGTKLEIK
B21: H183/L072 VH A60T (antibody, name in Kabat numbering, V domains shown)
VH: QVQLVESGGGLVQPGRSLRLSCAASGFTFSNAWMHWVRQAPGKGLEWVAQIKDKGNAYAAYYTPSVKGRFTISRDDSKNSIYLQMNSLKTEDTAVYYCHYVHYASASTVLPAFGVDAWGQGTTVTVSS
VL: DIVMTQSPLSLPVTPGEPASISCQASQELVHMNRNTYLHWYQQKPGQAPRLLIYKVSNRFPGVPDRFSGSGSGTDFTLKISRVEAEDVGVYYCAQGTSVPFTFGQGTKLEIK

The binders below were run against T1, Human CD137 ECD (human) (assay: single mutant vs template dBBDu183H).
T1 construct: also called 4-1BB
T1 sequence (chain, as listed by the source limits assumed): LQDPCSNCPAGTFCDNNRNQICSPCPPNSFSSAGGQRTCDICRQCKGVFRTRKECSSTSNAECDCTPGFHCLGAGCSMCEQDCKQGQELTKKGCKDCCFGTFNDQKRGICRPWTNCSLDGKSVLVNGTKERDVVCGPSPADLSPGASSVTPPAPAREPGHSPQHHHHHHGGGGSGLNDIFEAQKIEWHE

Compared with B1, B2 is higher in “fold change of affinity” value: 0.5 fold for the first, 0.6 fold for the second.

First: B3
Second: B4
The “fold change of affinity” value of the first is higher: 1.3 fold for the first, 0.8 fold for the second.

Going from B5 to B6, the “fold change of affinity” value falls from 1.3 fold to 1.1 fold.

First: B7
Second: B8
The “fold change of affinity” value of the first is higher: 1.2 fold for the first, 0.1 fold for the second.

Going from B9 to B10, the “fold change of affinity” value rises from 0.7 fold to 1.1 fold.

First: B11
Second: B12
The “fold change of affinity” value of the first is higher: 1.2 fold for the first, 1 fold for the second.

First: B13
Second: B14
The “fold change of affinity” value of the first is lower: 0.8 fold for the first, 1 fold for the second.

Going from B15 to B16, the “fold change of affinity” value rises from 0 fold to 1.1 fold.

First: B17
Second: B18
The “fold change of affinity” value of the first is higher: 0.9 fold for the first, 0 fold for the second.

Compared with B19, B20 is lower in “fold change of affinity” value: 1.2 fold for the first, 0.9 fold for the second.

B21 was tested, and the “fold change of affinity” value was 1.3 fold.

Source: patent US20210388087A1 (Chugai, published 2021)
